Results reported in article PMC11080044, “Contribution of a C-Terminal Extension to the Substrate Affinity and Oligomeric Stability of Aldehyde Dehydrogenase from Thermus thermophilus HB27” (Biochemistry, 2024).

Assays:
[1] = target: the molecule itself; assay: SEC; SE-HPLC (AdvanceBio SEC 300 Å), untreated protein injected directly after thawing, 0.5 mg/mL, 10 mM potassium phosphate buffer pH 8.0, room temperature; oligomeric states from a calibration plot, percent of peak area, triplicate
[2] = target: Q72KD3; assay: SEC; SE-HPLC as in a1, after 5 min incubation at 65 °C and centrifugation at 10000 x g
[3] = target: Q72KD3; assay: SEC; SE-HPLC (AdvanceBio SEC 300 Å), untreated protein injected directly after thawing, 0.5 mg/mL, 10 mM potassium phosphate buffer pH 8.0, room temperature; oligomeric states from a calibration plot, percent of peak area, triplicate
[4] = target: Q72KD3; assay: SEC; SE-HPLC as in a1, after 15 min incubation at 65 °C and centrifugation at 10000 x g
[5] = target: Q72KD3; assay: SEC; SE-HPLC as in a1, after 10 min incubation at 65 °C and centrifugation at 10000 x g
[6] = target: Q72KD3; assay: SEC; SE-HPLC as in a1, after 20 min incubation at 65 °C and centrifugation at 10000 x g
[7] = target: the molecule itself; assay: SEC; SE-HPLC (AdvanceBio SEC 300 Å) of ALDHTt-508 purified after a 15 min heat shock of the lysate at 65 °C; 50 µL of 0.5 mg/mL, percent of total peak area

| Protein | stoichiometry N [1] | % dimer (SE-HPLC) [2] | % monomer (SE-HPLC) [2] | % tetramer (SE-HPLC) [2] | % dimer (SE-HPLC) [3] | % monomer (SE-HPLC) [3] | % tetramer (SE-HPLC) [3] | % dimer (SE-HPLC) [4] | % monomer (SE-HPLC) [4] | % tetramer (SE-HPLC) [4] | % dimer (SE-HPLC) [5] | % monomer (SE-HPLC) [5] | % tetramer (SE-HPLC) [5] | % dimer (SE-HPLC) [6] | % monomer (SE-HPLC) [6] | % tetramer (SE-HPLC) [6] | % of fully folded protein in the tetrameric peak [7] |
| --- | --- | --- | --- | --- | --- | --- | --- | --- | --- | --- | --- | --- | --- | --- | --- | --- | --- |
| Aldehyde dehydrogenase from Thermus thermophilus HB27, native (ALDHTt-native) (enzyme, UniProt Q72KD3 1-530, looked up, Aldehyde dehydrogenase ALDHTt of Thermus thermophilus strain HB27, UniProtKB Q72KD3, 530 amino acids, with its 30-residue C-terminal tail; pET22b(+) construct) MRKAAGKYGNTLEFGHLVGGEEVLEGPLLERRNPSDREDVVARFPEADKDLVRKAALKAREAFAEWSRTPAPIRGQVLFNLVKILEREKPTLTRLMVREVGKTPKEAAGDVQEAIDTALFFASEGRRLYGQTVPSEMRDKELFTFRRPLGVVGIITAGNFPIAVPSWKLIPAVLTGNTVVWKPSEDAPTLSFVFAKLFEEAGLPPGVLNVVFGGGKGSTGQWMVELMDEGLFQKFAFTGSTQVGRWIGEVAGRNLIRPTLELGGKNPLVVMRDADLDLAVEGAWWSAFATGGQRCTSAGNILVDAPIYEEFKRRFLERVEATLVGNPLLHPEVTYGPFINERFFARWQEHYRVGEAEGARLLFGRGRITRENPYPRFLGDPEAGLYGWPTVWEVRPGTRLFTEEVFGPTINLVKVDGIEEAIAVANSTPYGLSSAIYTNHRHWAYLFKVGIRAGMTSINNATVGAEAHLPFGGVKASGNGGRESGIWVLEEYTYWHAVNEEYSGRLQLAQMDTGYVSPKAPTPWGEVLGL | 4 | 0% | 0% | 97.7% | 0% | 0% | 98.8% | 0% | 0% | 93.7% | 0% | 0% | 94.9% | 0% | 0% | 93.2% |  |
| ALDHTt-508, aldehyde dehydrogenase from Thermus thermophilus HB27 with a 22-amino acid truncation of the C-terminus (enzyme, UniProt Q72KD3 1-508, looked up, Aldehyde dehydrogenase ALDHTt of Thermus thermophilus strain HB27, UniProtKB Q72KD3, without the last 22 amino acids of the 530; also called truncated mutant) MRKAAGKYGNTLEFGHLVGGEEVLEGPLLERRNPSDREDVVARFPEADKDLVRKAALKAREAFAEWSRTPAPIRGQVLFNLVKILEREKPTLTRLMVREVGKTPKEAAGDVQEAIDTALFFASEGRRLYGQTVPSEMRDKELFTFRRPLGVVGIITAGNFPIAVPSWKLIPAVLTGNTVVWKPSEDAPTLSFVFAKLFEEAGLPPGVLNVVFGGGKGSTGQWMVELMDEGLFQKFAFTGSTQVGRWIGEVAGRNLIRPTLELGGKNPLVVMRDADLDLAVEGAWWSAFATGGQRCTSAGNILVDAPIYEEFKRRFLERVEATLVGNPLLHPEVTYGPFINERFFARWQEHYRVGEAEGARLLFGRGRITRENPYPRFLGDPEAGLYGWPTVWEVRPGTRLFTEEVFGPTINLVKVDGIEEAIAVANSTPYGLSSAIYTNHRHWAYLFKVGIRAGMTSINNATVGAEAHLPFGGVKASGNGGRESGIWVLEEYTYWHAVNEEYSGRLQL | 4 | 0% | 0.87% | 95.4% | 1.71% | 2.5% | 90% | 0% | 0.55% | 95.8% | 0% | 0.79% | 93.1% | 0% | 0.71% | 91.4% | 6.4 ± 1.5% |
